B4: GST-Cdc20_(166-499) (GST-Cdc20^C) (domain or fragment, human, UniProt Q12834 166-499, looked up)
chain: RYIPSLPDRILDAPEIRNDYYLNLVDWSSGNVLAVALDNSVYLWSASSGDILQLLQMEQPGEYISSVAWIKEGNYLAVGTSSAEVQLWDVQQQKRLRNMTSHSARVGSLSWNSYILSSGSRSGHIHHHDVRVAEHHVATLSGHSQEVCGLRWAPDGRHLASGGNDNLVNVWPSAPGEGGWVPLQTFTQHQGAVKAVAWCPWQSNVLATGGGTSDRHIRIWNVCSGACLSAVDAHSQVCSILWSPHYKELISGHGFAQNQLVIWKYPTMAKVAELKGHTSRVLSLTMSPDGATVASAAADETLRLWRCFELDPARRREREKASAAKSSLIHQGIR
B5: Cdc20^C (Cdc20_(166-499), free in solution) (domain or fragment, human, UniProt Q12834 166-499, looked up)
chain: RYIPSLPDRILDAPEIRNDYYLNLVDWSSGNVLAVALDNSVYLWSASSGDILQLLQMEQPGEYISSVAWIKEGNYLAVGTSSAEVQLWDVQQQKRLRNMTSHSARVGSLSWNSYILSSGSRSGHIHHHDVRVAEHHVATLSGHSQEVCGLRWAPDGRHLASGGNDNLVNVWPSAPGEGGWVPLQTFTQHQGAVKAVAWCPWQSNVLATGGGTSDRHIRIWNVCSGACLSAVDAHSQVCSILWSPHYKELISGHGFAQNQLVIWKYPTMAKVAELKGHTSRVLSLTMSPDGATVASAAADETLRLWRCFELDPARRREREKASAAKSSLIHQGIR

Tests used:
Assay in all cases: pull-down
[1] = target: B4
[2] = target: B5
[3] = target: Cdc20 (full length, Cdc20^FL) (human, UniProt Q12834 1-499)
BubR1_(1-363) = BubR1_(1-363) (human, UniProt O60566 1-363)
GST-BubR1^N = GST-BubR1^N (human, UniProt O60566 1-477)

B1: Cdc20_(1-163) (Cdc20^N) (domain or fragment, human, UniProt Q12834 1-163, looked up)
chain: MAQFAFESDLHSLLQLDAPIPNAPPARWQRKAKEAAGPAPSPMRAANRSHSAGRTPGRTPGKSSSKVQTTPSKPGGDRYIPHRSAAQMEVASFLLSKENQPENSQTPTKKEHQKAWALNLNGFDVEEAKILRLSGKPQNAPEGYQNRLKVLYSQKATPGSSRK
- binding result [1]: binds

B2: GST-Cdc20^N (domain or fragment, human, UniProt Q12834 1-163, looked up)
chain: MAQFAFESDLHSLLQLDAPIPNAPPARWQRKAKEAAGPAPSPMRAANRSHSAGRTPGRTPGKSSSKVQTTPSKPGGDRYIPHRSAAQMEVASFLLSKENQPENSQTPTKKEHQKAWALNLNGFDVEEAKILRLSGKPQNAPEGYQNRLKVLYSQKATPGSSRK
- binding result [2]: binds

B3: BubR1_(1-477) (BubR1^N) (domain or fragment, human, UniProt O60566 1-477, looked up)
chain: MAAVKKEGGALSEAMSLEGDEWELSKENVQPLRQGRIMSTLQGALAQESACNNTLQQQKRAFEYEIRFYTGNDPLDVWDRYISWTEQNYPQGGKESNMSTLLERAVEALQGEKRYYSDPRFLNLWLKLGRLCNEPLDMYSYLHNQGIGVSLAQFYISWAEEYEARENFRKADAIFQEGIQQKAEPLERLQSQHRQFQARVSRQTLLALEKEEEEEVFESSVPQRSTLAELKSKGKKTARAPIIRVGGALKAPSQNRGLQNPFPQQMQNNSRITVFDENADEASTAELSKPTVQPWIAPPMPRAKENELQAGPWNTGRSLEHRPRGNTASLIAVPAVLPSFTPYVEETARQPVMTPCKIEPSINHILSTRKPGKEEGDPLQRVQSHQQASEEKKEKMMYCKEKIYAGVGEFSFEEIRAEVFRKKLKEQREAELLTSAEKRAEMQKQIEEMEKKLKEIQTTQQERTGDQQEETMPTKET
- fold increase of association with Mad2 against without Mad2 [3]: ~6 fold

Binder: B4
- binding result (BubR1_(1-363)): binds

Binder: B5
- binding result (GST-BubR1^N): binds

— paper PMC3713096 (Molecular cell, 2013)
